B1: Dynorphin B (peptide)
peptide: YGGFLRRQFKVVT
B2: Nociceptin 1-13-NH2 (peptide)
peptide: FGGFTGARKSARK-NH2
B3: [Phe1Ψ(CH2-NH)-gly2]nociceptin-(1-13)-NH2 (peptide)
peptide: FGGFTGARKSARK-NH2
modifications: also: ψ(CH2-NH) bond between Phe1 and Gly2
B4: Adrenorphin (peptide)
peptide: YGGFMRRV-NH2
B5: Dynorphin A (peptide)
peptide: YGGFLRRIRPKLKWDNQ
B6: BAM22 (peptide)
peptide: YGGFMRRVGRPEWWMDYQKRYG
B7: Nociceptin (peptide)
peptide: FGGFTGARKSARKLANQ
B8: LIH383 (peptide)
peptide: FGGFMRRK-NH2
B9: LIH383-Cy5 (peptide)
peptide: FGGFMRRK(Cy5)
B10: Dynorphin A 2-13-NH2 (peptide)
peptide: GGFLRRIRPKLK-NH2
B11: Dynorphin A 2-17 (peptide)
peptide: GGFLRRIRPKLKWDNQ
B12: Endomorphin-1 (peptide)
chain: YPWF-NH2
B13: LIH383 (designed binder)
peptide: FGGFMRRK-NH2

No end group written: not given here. Where only a bound is given, the exact number is not on record here.

Sequence of mouse ACKR3 (P56485 whole entry): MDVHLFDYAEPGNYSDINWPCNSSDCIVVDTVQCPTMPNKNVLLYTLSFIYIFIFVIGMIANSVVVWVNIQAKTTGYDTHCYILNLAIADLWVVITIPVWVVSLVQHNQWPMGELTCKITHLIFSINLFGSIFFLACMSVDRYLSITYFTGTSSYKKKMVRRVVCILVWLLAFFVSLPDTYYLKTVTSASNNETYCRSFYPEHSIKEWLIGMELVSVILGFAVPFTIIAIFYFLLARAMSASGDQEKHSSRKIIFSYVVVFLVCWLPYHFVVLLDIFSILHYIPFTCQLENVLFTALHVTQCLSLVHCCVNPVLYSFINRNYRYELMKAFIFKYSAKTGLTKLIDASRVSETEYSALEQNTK

In the first test the target is T1, atypical chemokine receptor ACKR3 (formerly CXCR7) (human, UniProt P25106 1-362). The experiment in a line: cell-based or functional assay.
T1 sequence (P25106 whole entry): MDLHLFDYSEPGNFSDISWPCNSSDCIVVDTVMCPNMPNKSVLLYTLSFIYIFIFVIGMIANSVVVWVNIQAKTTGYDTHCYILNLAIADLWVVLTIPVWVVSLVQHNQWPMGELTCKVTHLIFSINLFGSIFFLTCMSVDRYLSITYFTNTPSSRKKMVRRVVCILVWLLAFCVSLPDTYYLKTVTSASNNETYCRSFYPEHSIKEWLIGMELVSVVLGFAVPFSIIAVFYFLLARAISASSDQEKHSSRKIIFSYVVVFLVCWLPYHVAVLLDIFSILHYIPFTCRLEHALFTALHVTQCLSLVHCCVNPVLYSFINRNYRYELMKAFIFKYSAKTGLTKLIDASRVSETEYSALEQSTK
Take B1: the “Supplementary Table 9: EC50 of β-arrestin-1 recruitment to ACKR3, CHO cells” value (shortened to “Supplementary Table 9: EC50 … CHO cells”) was approximately 1000 nM; the “Supplementary Table 9: EC50 of β-arrestin-1 recruitment to ACKR3, HEK cells” value (“Supplementary Table 9: EC50 … HEK cells” below) worked out at 673 nM; the “Supplementary Table 9: EC50 of β-arrestin-2 recruitment to ACKR3, U87 cells” value (from here on “Supplementary Table 9: EC50 … U87 cells”) was determined as 908 nM.
On the same counts, the results for B2 are approximately 10000 nM, approximately 10000 nM and approximately 10000 nM.
Turning to B3, the “Supplementary Table 9: EC50 … CHO cells” value was approximately 5000 nM; the “Supplementary Table 9: EC50 … HEK cells” value stood at 3760 nM; the “Supplementary Table 9: EC50 … U87 cells” value was 4340 nM.
On the same counts, the results for B4 are 22.5 nM, 72.6 nM and 81.5 nM.
Regarding B5, the “Supplementary Table 9: EC50 … HEK cells” value came out at 110 nM and the “Supplementary Table 9: EC50 … U87 cells” value stood at 97.6 nM.
For B6, the “Supplementary Table 9: EC50 … CHO cells” value was found to be 12.5 nM; the “Supplementary Table 9: EC50 … HEK cells” value came to 23.2 nM; the “Supplementary Table 9: EC50 … U87 cells” value came out at 22.9 nM.
Consider B7, for which the “Supplementary Table 9: EC50 … CHO cells” value is approximately 10000 nM and the “Supplementary Table 9: EC50 … U87 cells” value is more than 10000 nM.

Another test concerns the target mouse ACKR3 (mouse, UniProt P56485 1-362). The experiment in a line: cell-based or functional assay.
With B8, the “Supplementary Table 6: EC50 of β-arrestin-1 recruitment to mACKR3, U87 cells” value was 2.31 nM.

In another test the target is T1, atypical chemokine receptor ACKR3 …. Briefly: flow cytometry on cells. On the technique in general: In flow cytometry, cells or beads pass a laser one at a time.
For orientation: EC50 means the concentration needed to bring the measured effect to its halfway point. The low end stands for an effect from little substance, the high end for a need for much substance. B9 came in with an EC50 of 6.65 nM.

Another test has the same target. The experiment in a line: flow cytometry on cells. The source holds these as a separate data set.
By IC50 is commonly meant the concentration that inhibits the measured activity by half. High values mean weaker potency, low ones greater potency. B1 showed an IC50 of approximately 1000 nM.
B2 registered an IC50 of more than 10000 nM.
Still for that read-out and setting: the figure for B3 is more than 10000 nM; for B10 it is more than 10000 nM; for B4 it is 41.2 nM.
As for B5, the IC50 was 85.3 nM.
On the same count and under the same terms, under B8 stands 4 nM; under B11, approximately 10000 nM; under B6, 31.3 nM.
B12 had an IC50 of more than 10000 nM.

The target of a further test is ACKR3 C-terminally tagged with SmBiT (human, UniProt P25106 1-362). The experiment in a line: cell-based or functional assay.
Sequence of ACKR3 C-terminally tagged with SmBiT (P25106 whole entry): as above
With B13, the “β-arrestin-1 recruitment (NanoBiT, U87 cells): EC50” value came to 0.61 nM.

The next test addresses T1, atypical chemokine receptor ACKR3 …. Briefly: cell-based or functional assay. This is another data set of the same source.
As for B4, the “Supplementary Table 4: EC50 of β-arrestin-1 recruitment to ACKR3, U87 cells” value came out at 109 nM.

A further test deals with mu opioid receptor (MOR) (human, UniProt P35372 1-400). Briefly: cell-based or functional assay.
Sequence of mu opioid receptor (MOR) (P35372 whole entry): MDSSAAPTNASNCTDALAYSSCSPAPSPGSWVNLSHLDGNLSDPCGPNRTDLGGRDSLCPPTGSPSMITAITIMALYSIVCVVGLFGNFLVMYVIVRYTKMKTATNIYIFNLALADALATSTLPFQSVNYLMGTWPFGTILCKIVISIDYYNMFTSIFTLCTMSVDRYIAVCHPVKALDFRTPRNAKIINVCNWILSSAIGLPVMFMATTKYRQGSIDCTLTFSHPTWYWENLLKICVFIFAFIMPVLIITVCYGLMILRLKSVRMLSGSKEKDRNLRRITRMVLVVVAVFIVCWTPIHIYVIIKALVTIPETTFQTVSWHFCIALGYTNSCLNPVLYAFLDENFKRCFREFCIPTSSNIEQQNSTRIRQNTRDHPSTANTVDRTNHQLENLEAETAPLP
In the case of B4, the “Supplementary Table 4: EC50 of β-arrestin-1 recruitment to MOR, U87 cells” value was 101 nM.

In a further test the target is kappa opioid receptor (KOR) (human, UniProt P41145 1-380). Briefly: cell-based or functional assay.
Sequence of kappa opioid receptor (KOR) (P41145 whole entry): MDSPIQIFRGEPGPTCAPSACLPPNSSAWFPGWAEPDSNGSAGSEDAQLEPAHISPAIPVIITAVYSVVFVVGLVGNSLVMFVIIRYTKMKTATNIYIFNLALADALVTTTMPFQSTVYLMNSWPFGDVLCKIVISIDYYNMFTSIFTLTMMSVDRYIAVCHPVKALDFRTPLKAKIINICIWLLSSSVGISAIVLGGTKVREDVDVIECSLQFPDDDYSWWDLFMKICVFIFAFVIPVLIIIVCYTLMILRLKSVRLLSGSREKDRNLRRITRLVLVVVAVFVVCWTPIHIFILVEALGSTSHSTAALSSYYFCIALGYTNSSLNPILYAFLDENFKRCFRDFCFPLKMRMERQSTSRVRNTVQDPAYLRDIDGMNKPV
In the case of B4, the “Supplementary Table 4: EC50 of β-arrestin-1 recruitment to KOR, U87 cells” value came to 65.6 nM.

The target of the next test is delta opioid receptor (DOR) (human, UniProt P41143 1-372). The experiment in a line: cell-based or functional assay.
Sequence of delta opioid receptor (DOR) (P41143 whole entry, stated change not applied): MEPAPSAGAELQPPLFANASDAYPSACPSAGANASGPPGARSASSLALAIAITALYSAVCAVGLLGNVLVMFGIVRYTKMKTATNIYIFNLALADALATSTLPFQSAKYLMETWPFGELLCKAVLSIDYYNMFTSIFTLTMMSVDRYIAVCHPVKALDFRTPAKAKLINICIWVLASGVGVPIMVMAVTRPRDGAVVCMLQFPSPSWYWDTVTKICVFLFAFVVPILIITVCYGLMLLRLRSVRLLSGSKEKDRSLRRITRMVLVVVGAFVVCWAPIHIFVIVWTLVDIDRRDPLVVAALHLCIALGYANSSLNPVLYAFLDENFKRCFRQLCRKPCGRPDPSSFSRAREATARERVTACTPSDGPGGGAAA
For the molecule B4, the “Supplementary Table 4: EC50 of β-arrestin-1 recruitment to DOR, U87 cells” value worked out at 323 nM.

For the origin of these results see article PMC7305236 (Nature Communications, 2020).
